From patent US20260250418A1 (BIOCYTOGEN PHARMACEUTICALS BEIJING, published 2026)

T1: monkey (Macaca fascicularis) HER3 on CHO-fasHER3 cells (monkey (Macaca fascicularis), UniProt P21860 20-643 (human entry))
T1 construct: CHO-S cells transfected with fasHER3
T1 chain: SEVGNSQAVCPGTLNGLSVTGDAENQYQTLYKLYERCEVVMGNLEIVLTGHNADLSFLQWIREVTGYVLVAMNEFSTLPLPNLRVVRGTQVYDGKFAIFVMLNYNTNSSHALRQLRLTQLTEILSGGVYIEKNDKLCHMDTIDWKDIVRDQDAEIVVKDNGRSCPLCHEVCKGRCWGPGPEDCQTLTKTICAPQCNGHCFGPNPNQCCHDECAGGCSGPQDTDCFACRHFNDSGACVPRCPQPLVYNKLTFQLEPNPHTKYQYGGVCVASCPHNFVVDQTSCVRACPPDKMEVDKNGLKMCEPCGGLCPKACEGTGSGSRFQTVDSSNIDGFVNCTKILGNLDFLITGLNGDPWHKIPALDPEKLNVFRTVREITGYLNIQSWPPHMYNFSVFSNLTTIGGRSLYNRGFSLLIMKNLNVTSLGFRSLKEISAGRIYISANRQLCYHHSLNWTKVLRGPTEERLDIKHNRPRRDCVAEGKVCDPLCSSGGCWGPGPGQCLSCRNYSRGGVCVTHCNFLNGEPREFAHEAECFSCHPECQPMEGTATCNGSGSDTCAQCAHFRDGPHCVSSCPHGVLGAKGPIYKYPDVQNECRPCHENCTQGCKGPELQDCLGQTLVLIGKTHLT


Legend:
[1] = target: T2, human HER3 on CHO-hHER3 cells (human, UniProt P21860 20-643); assay: flow cytometry, transfected CHO cells
T2 construct: CHO-S cells transfected with hHER3
Procedure: (§1) Specifically, CHO-hHER3 cells, CHO-fasHER3 cells, NIH3T3-hMET cells or NIH3T3-fasMET cells were transferred to a 96-well plate at a density of 5×10⁴ cells/well respectively. The antibodies were added to the 96-well plate, and incubated at 4° C. for 30 min.

[2] = target: T1, monkey (Macaca fascicularis) HER3 on …; assay: flow cytometry, transfected CHO cells
Procedure: as §1

[3] = target: T3, human MET on NIH3T3-hMET cells (human, UniProt P08581 25-1390); assay: flow cytometry, transfected NIH3T3 cells
T3 construct: NIH3T3 cells transfected with a plasmid expressing hMET
Procedure: as §1

[4] = target: T4, monkey MET on NIH3T3-fasMET cells (monkey, UniProt A0M8R7 25-1381); assay: flow cytometry, transfected NIH3T3 cells
T4 construct: NIH3T3 cells transfected with a plasmid expressing fasMET
Procedure: as §1

[5] = target: T5, His-tagged human MET (hMET, Sino Biological, Inc., Cat #: 10692-H08H) (human, UniProt P08581 25-932); assay: SPR, Ab captured on Protein A, antigen 400 nM
T5 construct: Bought protein; not shown: His tag
Procedure: (§2) Purified antibodies were captured on the Protein A chip (Series S Sensor Chip Protein A) for the detection. 2 μg/mL antibodies were loaded at 10 μL/min to bind to hHER3, fasHER3, hMET or fasMET (400 and 0 nM). The flow rate was 30 μL/min, the binding and dissociation time were set to 180 s and 400 s, respectively. The chip was regenerated after the last injection of each titration with a glycine solution ([…]) at 30 μL/min for 30 seconds.

[6] = target: T6, His-tagged human HER3 protein (hHER3, ACRO Biosystems Inc., Cat #: ER3-H5223) (human, UniProt P21860 20-643); assay: SPR, Ab captured on Protein A, antigen 400 nM
T6 construct: Bought protein; also called hHER3-His; not shown: His tag
Procedure: as §2

[7] = target: T7, His-tagged monkey HER3 protein (fasHER3, Sino Biological, Inc., Cat #: 90043-K08H) (monkey); assay: SPR, Ab captured on Protein A, antigen 400 nM
T7 construct: Bought protein
Procedure: as §2

T4 sequence (A0M8R7 25-1381 S170N/I621T limits assumed): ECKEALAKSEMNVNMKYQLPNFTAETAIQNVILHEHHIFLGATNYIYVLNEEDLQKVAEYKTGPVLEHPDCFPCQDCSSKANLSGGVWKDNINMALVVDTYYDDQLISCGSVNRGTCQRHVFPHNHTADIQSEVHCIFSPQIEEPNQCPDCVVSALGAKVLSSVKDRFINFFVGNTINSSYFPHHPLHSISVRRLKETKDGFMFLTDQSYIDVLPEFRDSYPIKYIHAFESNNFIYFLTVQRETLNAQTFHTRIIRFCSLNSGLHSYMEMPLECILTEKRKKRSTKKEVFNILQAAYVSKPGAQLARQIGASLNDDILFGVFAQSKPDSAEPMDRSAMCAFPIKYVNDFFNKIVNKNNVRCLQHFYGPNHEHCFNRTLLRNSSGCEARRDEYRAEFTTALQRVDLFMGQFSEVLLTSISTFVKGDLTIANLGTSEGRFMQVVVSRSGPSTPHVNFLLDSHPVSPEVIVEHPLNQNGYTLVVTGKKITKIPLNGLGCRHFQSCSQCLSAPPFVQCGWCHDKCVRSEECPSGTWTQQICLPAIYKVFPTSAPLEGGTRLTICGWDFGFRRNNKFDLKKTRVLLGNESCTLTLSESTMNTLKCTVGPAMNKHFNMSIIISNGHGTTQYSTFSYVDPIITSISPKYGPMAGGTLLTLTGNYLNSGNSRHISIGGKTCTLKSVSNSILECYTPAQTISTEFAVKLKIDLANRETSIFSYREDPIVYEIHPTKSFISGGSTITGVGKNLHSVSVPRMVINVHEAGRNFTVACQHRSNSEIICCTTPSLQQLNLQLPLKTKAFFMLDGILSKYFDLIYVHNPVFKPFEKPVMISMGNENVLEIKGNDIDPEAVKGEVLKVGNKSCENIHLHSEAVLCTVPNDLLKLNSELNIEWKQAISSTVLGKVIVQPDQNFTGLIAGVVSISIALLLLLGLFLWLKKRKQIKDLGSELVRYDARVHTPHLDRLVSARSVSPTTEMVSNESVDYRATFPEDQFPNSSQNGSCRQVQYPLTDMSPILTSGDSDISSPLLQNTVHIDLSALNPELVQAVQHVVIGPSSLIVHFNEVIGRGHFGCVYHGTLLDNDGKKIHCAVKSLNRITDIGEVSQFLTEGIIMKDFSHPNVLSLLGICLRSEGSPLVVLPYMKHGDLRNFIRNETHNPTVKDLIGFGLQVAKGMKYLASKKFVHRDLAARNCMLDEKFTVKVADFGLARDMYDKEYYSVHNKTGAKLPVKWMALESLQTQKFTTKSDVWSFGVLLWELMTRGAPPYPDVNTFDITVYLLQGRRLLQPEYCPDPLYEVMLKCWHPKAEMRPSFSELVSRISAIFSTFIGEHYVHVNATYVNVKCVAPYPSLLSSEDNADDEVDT
T5 sequence (P08581 25-932 limits assumed): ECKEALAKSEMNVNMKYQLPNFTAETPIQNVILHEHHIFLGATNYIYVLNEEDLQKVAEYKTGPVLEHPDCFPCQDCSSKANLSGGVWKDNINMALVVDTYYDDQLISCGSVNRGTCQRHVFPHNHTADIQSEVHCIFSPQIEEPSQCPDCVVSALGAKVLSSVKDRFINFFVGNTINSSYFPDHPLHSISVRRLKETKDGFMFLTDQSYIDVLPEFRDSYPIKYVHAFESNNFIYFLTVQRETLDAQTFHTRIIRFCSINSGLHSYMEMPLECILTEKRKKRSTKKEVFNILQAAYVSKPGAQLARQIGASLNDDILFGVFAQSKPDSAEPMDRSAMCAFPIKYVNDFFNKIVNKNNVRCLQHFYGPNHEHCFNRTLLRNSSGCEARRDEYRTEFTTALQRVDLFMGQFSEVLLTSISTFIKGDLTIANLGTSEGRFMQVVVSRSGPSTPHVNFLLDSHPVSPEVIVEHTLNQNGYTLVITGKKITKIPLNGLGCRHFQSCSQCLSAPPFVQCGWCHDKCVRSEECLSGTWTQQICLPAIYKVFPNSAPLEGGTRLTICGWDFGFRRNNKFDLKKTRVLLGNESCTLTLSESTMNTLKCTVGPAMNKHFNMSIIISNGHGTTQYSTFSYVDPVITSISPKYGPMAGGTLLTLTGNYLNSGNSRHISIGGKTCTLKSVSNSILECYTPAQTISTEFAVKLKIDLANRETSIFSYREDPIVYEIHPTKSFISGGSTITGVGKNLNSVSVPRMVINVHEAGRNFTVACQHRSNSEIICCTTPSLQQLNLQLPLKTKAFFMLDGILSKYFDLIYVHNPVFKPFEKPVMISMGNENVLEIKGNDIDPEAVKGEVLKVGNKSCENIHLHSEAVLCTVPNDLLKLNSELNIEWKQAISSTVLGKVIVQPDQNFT
T3 sequence (P08581 25-1390 limits assumed): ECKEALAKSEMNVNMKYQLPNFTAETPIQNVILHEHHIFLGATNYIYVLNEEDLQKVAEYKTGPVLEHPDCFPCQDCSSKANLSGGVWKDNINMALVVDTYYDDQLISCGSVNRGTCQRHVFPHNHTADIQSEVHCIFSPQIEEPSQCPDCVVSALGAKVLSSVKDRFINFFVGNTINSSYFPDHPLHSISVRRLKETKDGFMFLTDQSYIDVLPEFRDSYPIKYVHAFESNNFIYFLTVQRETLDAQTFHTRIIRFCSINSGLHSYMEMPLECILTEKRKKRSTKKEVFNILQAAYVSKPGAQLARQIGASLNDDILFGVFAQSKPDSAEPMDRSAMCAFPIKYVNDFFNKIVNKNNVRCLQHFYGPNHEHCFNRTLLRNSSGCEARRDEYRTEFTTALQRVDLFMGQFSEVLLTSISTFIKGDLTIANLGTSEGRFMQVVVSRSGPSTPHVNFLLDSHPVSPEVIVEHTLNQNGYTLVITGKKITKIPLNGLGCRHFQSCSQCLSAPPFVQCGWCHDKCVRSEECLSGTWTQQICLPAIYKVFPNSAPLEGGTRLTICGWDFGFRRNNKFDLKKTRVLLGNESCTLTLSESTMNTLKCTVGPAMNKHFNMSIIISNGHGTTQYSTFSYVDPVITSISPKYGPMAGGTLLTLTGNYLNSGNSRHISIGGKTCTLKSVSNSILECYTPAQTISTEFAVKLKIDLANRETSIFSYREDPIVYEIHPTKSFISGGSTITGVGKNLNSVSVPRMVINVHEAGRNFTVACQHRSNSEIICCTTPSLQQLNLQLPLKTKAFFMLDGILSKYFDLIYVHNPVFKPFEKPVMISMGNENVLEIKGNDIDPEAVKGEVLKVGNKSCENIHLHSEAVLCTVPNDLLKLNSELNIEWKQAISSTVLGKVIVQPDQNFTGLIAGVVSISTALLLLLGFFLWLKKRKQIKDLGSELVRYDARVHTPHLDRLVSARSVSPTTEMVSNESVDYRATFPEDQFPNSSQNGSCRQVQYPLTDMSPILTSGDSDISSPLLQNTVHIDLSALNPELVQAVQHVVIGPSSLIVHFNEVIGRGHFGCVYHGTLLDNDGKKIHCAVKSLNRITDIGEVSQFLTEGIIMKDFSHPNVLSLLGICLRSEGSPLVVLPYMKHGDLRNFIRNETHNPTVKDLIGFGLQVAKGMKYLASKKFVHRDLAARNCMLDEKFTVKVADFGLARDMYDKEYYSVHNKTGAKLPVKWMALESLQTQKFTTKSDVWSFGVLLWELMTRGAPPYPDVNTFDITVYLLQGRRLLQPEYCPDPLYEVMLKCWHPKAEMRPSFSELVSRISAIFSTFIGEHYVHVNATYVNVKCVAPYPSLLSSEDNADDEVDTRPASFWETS

| Positive Cells [1] [%] | Positive Cells [2] [%] | Positive Cells [3] [%] | Positive Cells [4] [%] | Kd [5] [nM] | koff [5] [s⁻¹] | kon [5] [M⁻¹ s⁻¹] | Kd [6] [nM] | koff [6] [s⁻¹] | kon [6] [M⁻¹ s⁻¹] | Kd [7] [nM] | koff [7] [s⁻¹] | kon [7] [M⁻¹ s⁻¹] | Binder |
| --- | --- | --- | --- | --- | --- | --- | --- | --- | --- | --- | --- | --- | --- |
| 72.1 | 66 | 99.7 | 54.6 | 12.7 | 0.00516 | 408000 | 14.5 | 0.00332 | 229000 | 32.2 | 0.00318 | 98700 | anti-HER3/MET bispecific antibody 3E1-8H10 (bispecific antibody, V domains shown) VH 1: EVQLVQSGPVLAKPTETLTLTCTVSGFSLSNIRMGVSWIRQPPGKALEWLAHIFSNDDKSYSPSLKNRLTISKDTSKSQVVLTMTTMDPMDTATYYCTRMKYSGGPFDYWGQGTLVTVSS VH 2: QVQLQQWGAGLLKPSETLSLTCAVYGGSFSGYYWTWIRQPPGKGLEWIGESNHGGSTNFNPSLKSRVTISVDTSKNHFSLKLSPVTAADTAVYYCTRGGTIFGLKDAFDIWGQGTMVTVSS VL: not shown |
| 67.9 | 64.4 | 99.8 | 57.2 | 10.9 | 0.00626 | 574000 | 16.9 | 0.00265 | 157000 | 38.7 | 0.00263 | 67800 | anti-HER3/MET bispecific antibody 1B2-8H10 (bispecific antibody, V domains shown) VH 1: QVQLVQSGPVLVKPTETLTLTCTVSTFSLSNARMGVSWIRQPPGKALEWLAHIFSNDDKSYSPSLKSRLTISKDTSKTQVVLTMTNMDPVDTATYYCSRMRYSGGPFDYWGQGSLVTVSS VH 2: QVQLQQWGAGLLKPSETLSLTCAVYGGSFSGYYWTWIRQPPGKGLEWIGESNHGGSTNFNPSLKSRVTISVDTSKNHFSLKLSPVTAADTAVYYCTRGGTIFGLKDAFDIWGQGTMVTVSS VL: not shown |
| 64.8 | 60.4 | 99.8 | 65.1 | 22.5 | 0.000531 | 23600 | 31.1 | 0.000605 | 19400 | 97 | 0.000671 | 6920 | anti-HER3/MET bispecific antibody 1C5-8D9 (bispecific antibody, V domains shown) VH 1: QVQLVESGGGVVQPGKSLRLSCAASGFTFSRSGMHWVRQAPGKGLEWVALISFDGSNKYYADSVKGRFTISRDNSKNTLNLQMNSLRAEDTAVYYCAKGGFGVVIYDAFDIWGHGTMVTVSS VH 2: QVQLQESGPGLVKPSETLSLTCTVSGGSISGHYWSWIRQSPGKGLEWIGYITYSGSTNYNPSLKSRVTISVDTSKNQFSLKLSSVTAADTAVYYCGTIAVAGRVYYYGVDVWGRGTTVTVSS VL: not shown |
| 56 | 54.9 | 99.7 | 68.4 | 44.2 | 0.00282 | 63800 | 29.3 | 0.000548 | 18700 | 103 | 0.000582 | 5630 | anti-HER3/MET bispecific antibody 1C5-2F11 (bispecific antibody, V domains shown) VH 1: QVQLVESGGGVVQPGKSLRLSCAASGFTFSRSGMHWVRQAPGKGLEWVALISFDGSNKYYADSVKGRFTISRDNSKNTLNLQMNSLRAEDTAVYYCAKGGFGVVIYDAFDIWGHGTMVTVSS VH 2: EVQLVESGPGLVKPSETLSLTCTVSGGSISSNYWSWIRQPPGKGLEWIGYIYHSGSTNYNPSLKSRVTISVDTSKNQFSLKLSSVTAADTAVYFCARGPVSIFGVVKYIDLWGRGTLVTVSS VL: not shown |
| 67.3 | 58.9 | 99.8 | 54.8 | 12.8 | 0.00427 | 333000 | 28.5 | 0.000593 | 20800 | 81.5 | 0.000655 | 8040 | anti-HER3/MET bispecific antibody 1C5-8H10 (bispecific antibody, V domains shown) VH 1: QVQLVESGGGVVQPGKSLRLSCAASGFTFSRSGMHWVRQAPGKGLEWVALISFDGSNKYYADSVKGRFTISRDNSKNTLNLQMNSLRAEDTAVYYCAKGGFGVVIYDAFDIWGHGTMVTVSS VH 2: QVQLQQWGAGLLKPSETLSLTCAVYGGSFSGYYWTWIRQPPGKGLEWIGESNHGGSTNFNPSLKSRVTISVDTSKNHFSLKLSPVTAADTAVYYCTRGGTIFGLKDAFDIWGQGTMVTVSS VL: not shown |
